Assay results as given in patent publication US20260062447A1, “COMPOUNDS” (UNIVERSITY OF SOUTHAMPTON, priority 2022, published 2026).
One block for each substance: values may come before it.

How the values were obtained:
HIF-1α PAS-B domain [1] = target: HIF-1α PAS-B domain (UniProt Q16665); assay: MST (microscale thermophoresis), labelled HIF-1α PAS-B [part 1 of 4) B]
HIF-1α PAS-B domain [2] = target: HIF-1α PAS-B domain (UniProt Q16665); assay: MST (microscale thermophoresis), labelled HIF-1α PAS-B [part 4 of 4]
HIF-1α PAS-B domain [3] = target: HIF-1α PAS-B domain (UniProt Q16665); assay: MST (microscale thermophoresis), labelled HIF-1α PAS-B [part 2 of 4]
HIF-1α PAS-B domain [4] = target: HIF-1α PAS-B domain (UniProt Q16665); assay: MST (microscale thermophoresis), labelled HIF-1α PAS-B [part 3 of 4]
HIF-1α PAS-B domain [5] = target: HIF-1α PAS-B domain (UniProt Q16665); assay: MST (microscale thermophoresis), labelled HIF-1α PAS-B [part 3 of 14) B]
HIF-1α PAS-B domain [6] = target: HIF-1α PAS-B domain (UniProt Q16665); assay: MST
His-HIF-1α PAS-B domain = His-HIF-1α PAS-B domain (UniProt Q16665); assay: competition ELISA: inhibition of FLAG-HIF-1β PAS-B binding to plate-bound His-HIF-1α PAS-B
His-HIF-1α PAS-B domain, sequence (Q16665 238-349 limits assumed): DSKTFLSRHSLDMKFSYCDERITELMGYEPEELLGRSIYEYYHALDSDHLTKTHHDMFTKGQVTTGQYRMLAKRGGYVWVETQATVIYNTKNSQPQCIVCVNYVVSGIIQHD

HIF-1α PAS-B domain, sequence (Q16665 238-349 limits assumed): as above

EC50 (read off the curve) (HIF-1α PAS-B domain [1]): 2000 nM
Substance: Cyclo-CL-Aib-F(CF3)IF(Br) (peptide)

EC50 (read off the curve) (HIF-1α PAS-B domain [2]): 500 nM
Substance: Cyclo-CL-NL-F(CF3)IF(Br) (Cys leu n-leu phe(CF3) ile phe(4-Br)) (peptide)

EC50 (read off the curve) (HIF-1α PAS-B domain [3]): 600 nM
Substance: Cyclo-CL-NV-F(CF3)IF(Br) (peptide)

EC50 (read off the curve) (HIF-1α PAS-B domain [4]): 1000 nM
Substance: Cyclo-CL-Prop-F(CF3)IF(Br) (peptide)

EC50 (read off the curve) (HIF-1α PAS-B domain [4]): 700 nM
Substance: Cyclo-CL-hL-F(CF3)IF(Br) (peptide)

Kd (HIF-1α PAS-B domain [4]): 1920 nM
Substance: Cyclo-CLLF(CF3)-Aib-F(Br) (peptide)

Kd (HIF-1α PAS-B domain [2]): 1030 nM
Substance: Cyclo-CLLF(CF3)-NL-F(Br) (peptide)

Kd (HIF-1α PAS-B domain [3]): 22400 nM
Substance: Cyclo-CLLF(CF3)-NV-F(Br) (peptide)

Kd (HIF-1α PAS-B domain [3]): 1160 nM
Substance: Cyclo-CLLF(CF3)-Prop-F(Br) (peptide)

Kd (HIF-1α PAS-B domain [2]): 735 nM
Substance: Cyclo-CLLF(CF3)-hL-F(Br) (Cys leu leu phe(CF3) h-leu phe(4-Br)) (peptide)

Kd (HIF-1α PAS-B domain [5]): > 200000 nM
Substance: Cyclo-CLLY(Me)VY (peptide)

Kd (HIF-1α PAS-B domain [6]): 1660 nM | IC50 (His-HIF-1α PAS-B domain): 27700 nM
Substance: cyclo-CK-NL-F(CF3)IF(Br) (Cys lys n-leu phe(CF3) ile phe(4-Br)) (peptide)
